This note sets out measurements from US20090029005A1.

“And” between values parts separate entries of the source, which are not always exact repeats. Equal entries are not always repeated.

Experiment [1] deals with Angiotensin-I Converting Enzyme. As to the kind of experiment: cell-based or functional assay.
Experiment [2] deals with Angiotensin-I Converting Enzyme (ACE). As to the kind of experiment: cell-based or functional assay.

For the substance Egg White/Alcalase (LS 250903), in experiment [1], the IC50 (mg/mL), ACE inhibition (Hip-His-Leu assay) was determined as 0.46 mg/mL.
Regarding Ovotransferrin/Promod 258P hydrolysate, in experiment [2], the ACE inhibition (% inhibition) at 0.5 mg/ml is 62% and 58% and 66%; the inhibition (%) at 0.0625 mg/ml is 18.4% and -1%; the inhibition (%) at 0.125 mg/ml was 40% and 18.8%; the inhibition (%) at 0.25 mg/ml is 41.1% and 45.1%. Moreover, in experiment [2], the inhibition (%) at 0.5 mg/ml was 57.7% and 66.3%; the inhibition (%) at 1 mg/ml was 85.2% and 86.2%; the inhibition (%) at 2 mg/ml is 121% and 104%.
For the substance Ovotransferrin/Protex 6L hydrolysate, in experiment [2], the ACE inhibition (% inhibition) at 0.5 mg/ml was 59% and 60%; the inhibition (%) at 0.0625 mg/ml is 13.7% and 12%; the inhibition (%) at 0.125 mg/ml was 30.6% and 19.1%; the inhibition (%) at 0.25 mg/ml is 44.4% and 34.4%. Further, in experiment [2], the inhibition (%) at 0.5 mg/ml was 60.2% and 58.6%; the inhibition (%) at 1 mg/ml was 76.8% and 70.2%; the inhibition (%) at 2 mg/ml was 97.3% and 88%.
